Target: the molecule itself
Assay: SEC; analytical SEC, S200 Increase 3.2/300 GL, 20 mM Tris pH 7.5, 100 mM NaCl, 0.5 mM TCEP; 0.1 mL of 1.2 mg/mL (5 uM hexamer/pseudohexamer) Msp1 with 2 mM ATP, 2 mM MgCl2; 0.1 mL/min

| Protein | stoichiometry N |
| --- | --- |
| His6‐TEV‐Msp1 E193Q Monomer (enzyme, UniProt P28737 33-362, looked up, Msp1 with the Walker B mutation E193Q, soluble construct: deletion of the first 32 residues as stated for the soluble constructs; A TEV site follows the His6 tag; No Strep tag; also called EQ; EQ monomer; source: E. coli BL21 pRIL, purified (Ni-NTA)) DVESGPLSGKSRESKAKQSLQWEKLVKRSPALAEVTLDAYERTILSSIVTPDEINITFQDIGGLDPLISDLHESVIYPLMMPEVYSNSPLLQAPSGVLLYGPPGCGKTMLAKALAKESGANFISIRMSSIMDKWYGESNKIVDAMFSLANKLQPCIIFIDQIDSFLRERSSTDHEVTATLKAEFMTLWDGLLNNGRVMIIGATNRINDIDDAFLRRLPKRFLVSLPGSDQRYKILSVLLKDTKLDEDEFDLQLIADNTKGFSGSDLKELCREAALDAAKEYIKQKRQLIDSGTIDVNDTSSLKIRPLKTKDFTKKLRMDATSTLSSQPLD | 6 |
| His6‐WT‐EQ‐2xStrep Dimer (covalently linked Msp1 dimer, soluble) (enzyme, Msp1, subunit 1, wild type, deletion of the first 32 residues to remove the TMD; 35-residue flexible linker between the two subunits; Msp1, subunit 2, Walker B mutant E193Q, deletion of the first 32 residues to remove the TMD; Two Msp1 subunits on one chain; on SEC a mixture of the single chain (dimer) and the pseudohexamer (three chains); also called WT‐EQ dimer; source: E. coli BL21 pRIL, …) DVESGPLSGKSRESKAKQSLQWEKLVKRSPALAEVTLDAYERTILSSIVTPDEINITFQDIGGLDPLISDLHESVIYPLMMPEVYSNSPLLQAPSGVLLYGPPGCGKTMLAKALAKESGANFISIRMSSIMDKWYGESNKIVDAMFSLANKLQPCIIFIDEIDSFLRERSSTDHEVTATLKAEFMTLWDGLLNNGRVMIIGATNRINDIDDAFLRRLPKRFLVSLPGSDQRYKILSVLLKDTKLDEDEFDLQLIADNTKGFSGSDLKELCREAALDAAKEYIKQKRQLIDSGTIDVNDTSSLKIRPLKTKDFTKKLRMDATSTLSSQPLDASGSGGSEASASAGAAGSGDGSGSGGSEGGTSGATDVESGPLSGKSRESKAKQSLQWEKLVKRSPALAEVTLDAYERTILSSIVTPDEINITFQDIGGLDPLISDLHESVIYPLMMPEVYSNSPLLQAPSGVLLYGPPGCGKTMLAKALAKESGANFISIRMSSIMDKWYGESNKIVDAMFSLANKLQPCIIFIDQIDSFLRERSSTDHEVTATLKAEFMTLWDGLLNNGRVMIIGATNRINDIDDAFLRRLPKRFLVSLPGSDQRYKILSVLLKDTKLDEDEFDLQLIADNTKGFSGSDLKELCREAALDAAKEYIKQKRQLIDSGTIDVNDTSSLKIRPLKTKDFTKKLRMDATSTLSSQPLD | 3 |
| His6‐EQ‐WT‐2xStrep Dimer (covalently linked Msp1 dimer, soluble) (enzyme, Msp1, subunit 1, Walker B mutant E193Q, deletion of the first 32 residues to remove the TMD; 35-residue flexible linker between the two subunits; Msp1, subunit 2, wild type, deletion of the first 32 residues to remove the TMD; Two Msp1 subunits on one chain; on SEC a mixture of the single chain (dimer) and the pseudohexamer (three chains); also called EQ‐WT dimer; source: E. coli BL21 pRIL, …) DVESGPLSGKSRESKAKQSLQWEKLVKRSPALAEVTLDAYERTILSSIVTPDEINITFQDIGGLDPLISDLHESVIYPLMMPEVYSNSPLLQAPSGVLLYGPPGCGKTMLAKALAKESGANFISIRMSSIMDKWYGESNKIVDAMFSLANKLQPCIIFIDQIDSFLRERSSTDHEVTATLKAEFMTLWDGLLNNGRVMIIGATNRINDIDDAFLRRLPKRFLVSLPGSDQRYKILSVLLKDTKLDEDEFDLQLIADNTKGFSGSDLKELCREAALDAAKEYIKQKRQLIDSGTIDVNDTSSLKIRPLKTKDFTKKLRMDATSTLSSQPLDASGSGGSEASASAGAAGSGDGSGSGGSEGGTSGATDVESGPLSGKSRESKAKQSLQWEKLVKRSPALAEVTLDAYERTILSSIVTPDEINITFQDIGGLDPLISDLHESVIYPLMMPEVYSNSPLLQAPSGVLLYGPPGCGKTMLAKALAKESGANFISIRMSSIMDKWYGESNKIVDAMFSLANKLQPCIIFIDEIDSFLRERSSTDHEVTATLKAEFMTLWDGLLNNGRVMIIGATNRINDIDDAFLRRLPKRFLVSLPGSDQRYKILSVLLKDTKLDEDEFDLQLIADNTKGFSGSDLKELCREAALDAAKEYIKQKRQLIDSGTIDVNDTSSLKIRPLKTKDFTKKLRMDATSTLSSQPLD | 3 |
